According to patent EP4745153A1, “GLP-1, GIP AND GCG RECEPTOR […] USE THEREOF” (Jiangsu Hengrui Pharmaceuticals Co., Ltd., priority 2023, dated 2025):
Starred links: 1 amine or outer side, 2 acyl side, 3 side chain; linkers in the order of their positions; H or OH if unused. Non-standard residues stand in square brackets, D forms with d. Groups on a side chain read outwards from the residue. No end group written: not given here. *: point of attachment. C20 diacid = O=C(O)CCCCCCCCCCCCCCCCCCC(=O)*; γGlu = O=C(O)[C@H](CCC(=O)[*:2])N[*:1]; αMeL = CC(C)C[C@](C)(N)C(=O)O; αMeK = C[C@](N)(CCCCN)C(=O)O; AEEA = NCCOCCOCC(=O)O; Aib = CC(C)(N)C(=O)O

T1: human glucose-dependent insulinotropic polypeptide receptor (human, UniProt P48546 22-466)
T1 sequence (looked up): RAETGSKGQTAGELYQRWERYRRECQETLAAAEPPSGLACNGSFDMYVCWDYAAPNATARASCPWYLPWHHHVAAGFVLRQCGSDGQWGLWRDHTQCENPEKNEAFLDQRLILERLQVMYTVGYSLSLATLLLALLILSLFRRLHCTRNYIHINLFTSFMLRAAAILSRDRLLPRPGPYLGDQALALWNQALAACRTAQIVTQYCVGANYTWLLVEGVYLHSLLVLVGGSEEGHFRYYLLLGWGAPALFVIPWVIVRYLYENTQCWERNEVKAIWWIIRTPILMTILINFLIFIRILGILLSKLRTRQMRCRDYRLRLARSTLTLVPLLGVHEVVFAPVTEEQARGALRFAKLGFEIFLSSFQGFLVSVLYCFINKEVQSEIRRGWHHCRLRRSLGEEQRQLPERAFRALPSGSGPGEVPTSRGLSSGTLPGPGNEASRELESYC


Assays:
Test in all cases: cell-based or functional assay
[1] = molecular target: human glucagon-like peptide-1 receptor (human, UniProt P43220 24-463)
[2] = molecular target: T1, human glucose-dependent insulinotropic …
human glucagon receptor = human glucagon receptor (human, UniProt P47871 26-477)
Chain of human glucagon receptor (P47871 26-477): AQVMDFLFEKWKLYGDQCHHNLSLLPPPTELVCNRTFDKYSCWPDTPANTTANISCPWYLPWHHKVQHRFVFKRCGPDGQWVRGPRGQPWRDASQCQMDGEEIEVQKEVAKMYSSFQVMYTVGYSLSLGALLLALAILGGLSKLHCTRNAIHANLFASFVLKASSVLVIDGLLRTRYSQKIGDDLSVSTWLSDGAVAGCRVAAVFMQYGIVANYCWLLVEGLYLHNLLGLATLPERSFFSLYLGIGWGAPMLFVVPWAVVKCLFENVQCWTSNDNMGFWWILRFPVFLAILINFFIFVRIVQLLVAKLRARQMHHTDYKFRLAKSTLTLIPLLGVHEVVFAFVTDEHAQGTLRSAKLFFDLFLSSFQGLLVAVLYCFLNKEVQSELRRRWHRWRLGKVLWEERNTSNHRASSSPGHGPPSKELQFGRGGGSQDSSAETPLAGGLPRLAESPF

Row | Binder | Activity against human GLP-1R (EC50 nM) [1] | Activity against human GIPR (EC50 nM) [2] | Activity against human GCGR (EC50 nM) (human glucagon receptor)
1 | H[Aib]HGTFTSDYSKYLEK([AEEA-AEEA-γGlu-C20 diacid])[αMeK]AAQEFVEWLLAGGPSSGAPPPS-NH2 (N-terminus assumed; SMILES CC(C)C[C@H](NC(=O)[C@H](CC(C)C)NC(=O)[C@H](Cc1c[nH]c2ccccc12)NC(=O)[C@H](CCC(=O)O)NC(=O)[C@@H](NC(=O)[C@H](Cc1ccccc1)NC(=O)[C@H](CCC(=O)O)NC(=O)[C@H](CCC(N)=O)NC(=O)[C@H](C)NC(=O)[C@H](C)NC(=O)[C@](C)(CCCCN)NC(=O)[C@H](CCCCNC(=O)COCCOCCNC(=O)COCCOCCNC(=O)CC[C@H](NC(=O)CCCCCCCCCCCCCCCCCCC(=O)O)C(=O)O)NC(=O)[C@H](CCC(=O)O)NC(=O)[C@H](CC(C)C)NC(=O)[C@H](Cc1ccc(O)cc1)NC(=O)[C@H](CCCCN)NC(=O)[C@H](CO)NC(=O)[C@H](Cc1ccc(O)cc1)NC(=O)[C@H](CC(=O)O)NC(=O)[C@H](CO)NC(=O)[C@@H](NC(=O)[C@H](Cc1ccccc1)NC(=O)[C@@H](NC(=O)CNC(=O)[C@H](Cc1c[nH]cn1)NC(=O)C(C)(C)NC(=O)[C@@H](N)Cc1c[nH]cn1)[C@@H](C)O)[C@@H](C)O)C(C)C)C(=O)N[C@@H](C)C(=O)NCC(=O)NCC(=O)N1CCC[C@H]1C(=O)N[C@@H](CO)C(=O)N[C@@H](CO)C(=O)NCC(=O)N[C@@H](C)C(=O)N1CCC[C@H]1C(=O)N1CCC[C@H]1C(=O)N1CCC[C@H]1C(=O)N[C@@H](CO)C(N)=O) [Compound No. 0109] | 0.011 nM | 0.027 nM | 0.031 nM
2 | H[Aib]HGTFTSDYSKY[αMeL]EK([AEEA-AEEA-γGlu-C20 diacid])KAAQEFVEWLLAGGPSSGAPPPS-NH2 (N-terminus assumed; SMILES CC(C)C[C@H](NC(=O)[C@H](CC(C)C)NC(=O)[C@H](Cc1c[nH]c2ccccc12)NC(=O)[C@H](CCC(=O)O)NC(=O)[C@@H](NC(=O)[C@H](Cc1ccccc1)NC(=O)[C@H](CCC(=O)O)NC(=O)[C@H](CCC(N)=O)NC(=O)[C@H](C)NC(=O)[C@H](C)NC(=O)[C@H](CCCCN)NC(=O)[C@H](CCCCNC(=O)COCCOCCNC(=O)COCCOCCNC(=O)CC[C@H](NC(=O)CCCCCCCCCCCCCCCCCCC(=O)O)C(=O)O)NC(=O)[C@H](CCC(=O)O)NC(=O)[C@](C)(CC(C)C)NC(=O)[C@H](Cc1ccc(O)cc1)NC(=O)[C@H](CCCCN)NC(=O)[C@H](CO)NC(=O)[C@H](Cc1ccc(O)cc1)NC(=O)[C@H](CC(=O)O)NC(=O)[C@H](CO)NC(=O)[C@@H](NC(=O)[C@H](Cc1ccccc1)NC(=O)[C@@H](NC(=O)CNC(=O)[C@H](Cc1c[nH]cn1)NC(=O)C(C)(C)NC(=O)[C@@H](N)Cc1c[nH]cn1)[C@@H](C)O)[C@@H](C)O)C(C)C)C(=O)N[C@@H](C)C(=O)NCC(=O)NCC(=O)N1CCC[C@H]1C(=O)N[C@@H](CO)C(=O)N[C@@H](CO)C(=O)NCC(=O)N[C@@H](C)C(=O)N1CCC[C@H]1C(=O)N1CCC[C@H]1C(=O)N1CCC[C@H]1C(=O)N[C@@H](CO)C(N)=O) [Compound No. 0108] | 0.014 nM | 0.078 nM | 0.315 nM
